± gives the standard deviation of the averaged measurements.
Test system: Saccharomyces cerevisiae
Test: protein stability index of tFT-peptide fusion (C-terminal peptide) (PSI (0-1 scale)); higher = more stable (slower turnover)
Details: genetic background: wild type; temperature: 30 C
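Further: PSI is a weighted mean of sequencing reads over stability bins, variants kept only with over 10 reads, mCherry proximal and sfGFP distal, peptide attached via GGGS linker.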

| Sequence | protein stability index |
| --- | --- |
| SAPLASRLCLFA | 0.644 ± 0.0065 |
| TRLKKTEKTKER | 0.739 ± 0.025 |
| PPPFPLLPRYGF | 0.657 ± 0.066 |
| IRPSGVVPPRAG | 0.65 ± 0.048 |
| FSQLVQPSSFTS | 0.7176 ± 0.004 |
| APRLRRHPPHEP | 0.696 ± 0.0079 |
| AGGKRGGDGRWQ | 0.668 ± 0.014 |
| LLSPLRPPPFAP | 0.698 ± 0.041 |
| RAFGQGMGLAFS | 0.737 ± 0.0082 |
| PLAPPTSASRFS | 0.6466 ± 0.0027 |
| GGAGLGVVLGWW | 0.6833 ± 0.0062 |
| NIKITVHSTMDM | 0.698 ± 0.019 |
| DGKNSGHGLAKT | 0.702 ± 0.087 |
| HHPLGSPPVPPP | 0.729 ± 0.039 |
| GGGGEVRAWGLR | 0.71 ± 0.032 |
| SPTRFLPVPTPF | 0.75 ± 0.052 |
| LFAHPPSPPSAP | 0.654 ± 0.016 |
| FVALCHCVRISR | 0.697 ± 0.013 |
| SPFCGVRFRFCY | 0.632 ± 0.064 |
| FRCGLDFRWYVI | 0.62 ± 0.012 |
| YLTCTLLSQPIY | 0.542 ± 0.027 |
| PLILFLSLSRSV | 0.613 ± 0.066 |
| ESVVKNDVTYVQ | 0.691 ± 0.041 |
| SSSEGNRGSLQY | 0.774 ± 0.041 |
| GFRVRCSICGSA | 0.681 ± 0.073 |
| SCLMSFAFFASL | 0.619 ± 0.016 |

| Sequence | protein stability index |
| --- | --- |
| FLRPALACDVYN | 0.737 ± 0.05 |
| WGVCGVFLCLGV | 0.572 ± 0.11 |
| SLGLHADLLSRT | 0.672 ± 0.064 |
| LPSLFSPPLFPL | 0.702 ± 0.0017 |
| KKFRKGKKNKRK | 0.657 ± 0.03 |
| GWESCLGVTRSV | 0.69 ± 0.018 |
| RPPPSAIPPPSP | 0.6274 ± 0.0014 |
| PFPSFLPLLLPS | 0.702 ± 0.069 |
| PTPLPRISLTSV | 0.667 ± 0.025 |
| TLPFLYILDFFF | 0.589 ± 0.0081 |
| AGGAVGEAGSEG | 0.6939 ± 0.0027 |
| LTRLAYGLATAL | 0.664 ± 0.019 |
| SPRPTRCGQNSM | 0.6897 ± 0.0053 |
| GVVGVQTLIISN | 0.653 ± 0.043 |
| VVGRWGWACCRP | 0.681 ± 0.071 |
| PCSGSFFLEFRV | 0.707 ± 0.021 |
| SPRPPPLIIAST | 0.664 ± 0.031 |
| LLPNLFDSQFRE | 0.756 ± 0.044 |
| HIKSENKEKGKI | 0.624 ± 0.022 |
| RITTVPNSNPGN | 0.689 ± 0.08 |
| PPSPPHPIRPPA | 0.713 ± 0.025 |
| TINSHNYKTKTP | 0.664 ± 0.021 |
| CRVVRGGEGLGG | 0.652 ± 0.0081 |
| KKKKKKKKKKKK | 0.6364 ± 0.00086 |
| PPAPPFPAPPPR | 0.628 ± 0.028 |
| KSKIKKKKQTKR | 0.652 ± 0.051 |

| Sequence | protein stability index |
| --- | --- |
| RHPSAPRPVPLM | 0.695 ± 0.11 |
| PSHGSRPSPPLR | 0.676 ± 0.034 |
| RKAEWIKQYDMH | 0.479 ± 0.072 |
| IGLRVLSNSYEV | 0.694 ± 0.031 |
| RGNAMSFVCVGE | 0.658 ± 0.096 |
| PPCPSSPHARPA | 0.69824 ± 0.00052 |
| FITLHGLLSRPC | 0.626 ± 0.077 |
| LGGAVLSRFGAR | 0.738 ± 0.047 |
| WFPPLPPPPPPS | 0.734 ± 0.028 |
| FLTAGRLYDGRV | 0.6489 ± 0.0032 |
| VGKGALHCLPDL | 0.713 ± 0.0015 |
| GDMSIWRSNNIT | 0.6723 ± 0.00088 |
| PFPALQHAISRE | 0.699 ± 0.066 |
| TSGEIESTSKKK | 0.689 ± 0.055 |
| PPEPVRHTSGLS | 0.807 ± 0.059 |
| FFYGLHSHCAIP | 0.717 ± 0.081 |
| IRRTNRKETRKE | 0.686 ± 0.042 |
| RTFTLCSPSPCA | 0.645 ± 0.059 |
| SLEWGGGRRWPI | 0.719 ± 0.023 |
| WLFFVCEDAGGC | 0.68 ± 0.021 |
| FRRLCRPVWSAR | 0.6749 ± 0.0038 |
| SKTQRAQSGNSA | 0.699 ± 0.054 |
| GRVVLRISCAQI | 0.6144 ± 0.00074 |
| SFPAPPSPPPLP | 0.702 ± 0.081 |
| MGWGALGARGLV | 0.683 ± 0.029 |
| AVGLGPFGGSRG | 0.695 ± 0.0095 |

| Sequence | protein stability index |
| --- | --- |
| PPRATPPFPLPP | 0.648 ± 0.031 |
| PHAMNPNTSRVL | 0.682 ± 0.008 |
| PNVHMRVFELFM | 0.72 ± 0.054 |
| RHPLPHNLSPYP | 0.78 ± 0.0065 |
| RFWIVVRRQTRT | 0.6447 ± 0.00089 |
| LLPTRPAPHLSL | 0.704 ± 0.17 |
| GSQPSQRRSSGA | 0.679 ± 0.014 |
| EEGVARYVERWV | 0.675 ± 0.0075 |
| LLLLLPPLPFVP | 0.66 ± 0.035 |
| PPNLYRGVQGPA | 0.682 ± 0.0099 |
| DVFCFWCVSGFV | 0.651 ± 0.082 |
| LKGVNPVNLHEL | 0.66 ± 0.039 |
| IILHLTRPGLAL | 0.673 ± 0.013 |
| PPPSPNPRENPK | 0.671 ± 0.0071 |
| PPPHPPRRLLPP | 0.69 ± 0.065 |
| LRSPFPTPSDLV | 0.714 ± 0.051 |
| LHLYPSLLLPGL | 0.742 ± 0.074 |
| GPGGPGGGWPLQ | 0.687 ± 0.024 |
| GCRDQKLGVGVD | 0.759 ± 0.064 |
| VVVGSITRLGLW | 0.6908 ± 0.00074 |
| SQGSTLRGIEEP | 0.661 ± 0.048 |
| GGWHVVGGAGVG | 0.564 ± 0.01 |
| KKAKEETSTPDC | 0.67 ± 0.034 |
| PLSPPLLPPPPP | 0.688 ± 0.014 |
| SRTLLRVSHLSL | 0.699 ± 0.02 |
| MPIKGRHSRSLK | 0.66 ± 0.044 |

| Sequence | protein stability index |
| --- | --- |
| GRGAGRATQSPP | 0.597 ± 0.064 |
| GIRKRIEKKKIK | 0.7 ± 0.051 |
| GRNAGPSLLPAL | 0.684 ± 0.038 |
| WWGSGGREPGGS | 0.739 ± 0.05 |
| LGVLGGWRRFGV | 0.72 ± 0.031 |
| STPVKLPTSSLP | 0.663 ± 0.051 |
| PPNPLPPAFTPP | 0.715 ± 0.027 |
| IPSRALSCLLPC | 0.66 ± 0.053 |
| VARGVGGGVWRS | 0.704 ± 0.015 |
| WHFTPPPPPTSP | 0.715 ± 0.011 |
| PHRSVSRLTILS | 0.658 ± 0.012 |
| YGYMTNNCLLSI | 0.649 ± 0.041 |
| PRALPSPPPPPP | 0.661 ± 0.13 |
| IFMHPRATLPAR | 0.73 ± 0.076 |
| VGELGVFAPGGK | 0.5 ± 0.1 |
| STSAPPRVPTPR | 0.704 ± 0.078 |
| EGGGWGRYDGFG | 0.69378 ± 9.6e-05 |
| GSTSLILSMSPA | 0.693 ± 0.027 |
| LHPPRPTPKHPA | 0.608 ± 0.0093 |
| RGSRVDLKLSKK | 0.678 ± 0.019 |
| WGGVGRLAGLLG | 0.703 ± 0.021 |
| GVAGRRGQRDVR | 0.746 ± 0.088 |
| VFCGGGRFRCSR | 0.651 ± 0.023 |
| AFHFFLIPHSFF | 0.639 ± 0.025 |
| VPGRSPTKSTVS | 0.66808 ± 0.00013 |
| GGPAWGRGGMYW | 0.678 ± 0.034 |

| Sequence | protein stability index |
| --- | --- |
| VHFECFLVPFLL | 0.525 ± 0.028 |
| WQGLGGARGCML | 0.691 ± 0.066 |
| GLRGRRRAAGRV | 0.726 ± 0.06 |
| IRKDRGYETGKR | 0.6746 ± 0.0043 |
| PLYRPCPGSRRA | 0.745 ± 0.0097 |
| PLWRPLALSHVS | 0.67 ± 0.012 |
| SSVNRPTSWTKA | 0.739 ± 0.024 |
| VPPPPPRLKRFA | 0.639 ± 0.035 |
| SLPLVLHGHRLY | 0.672 ± 0.027 |
| CPPPPPPPASPH | 0.698 ± 0.074 |
| RVVGGWGEAWRE | 0.744 ± 0.0091 |
| KTNKKTIVKSQT | 0.674 ± 0.046 |
| ALPAGLRDLPRP | 0.586 ± 0.025 |
| CTGDLSHVLFGI | 0.725 ± 0.016 |
| TPSNTRPTLHIP | 0.6404 ± 0.0011 |
| WGLGVFALKTLL | 0.623 ± 0.034 |
| NGGFIGVYICRT | 0.73 ± 0.13 |
| IFRSLDFVFYFT | 0.646 ± 0.097 |
| WVESGGGCVGRI | 0.706 ± 0.039 |
| SCSLPCPRLPSD | 0.719 ± 0.15 |
| STQELHYCFVCL | 0.59 ± 0.022 |
| CRCVRVGSVVLD | 0.632 ± 0.016 |
| KSVQEPTPRKYR | 0.674 ± 0.026 |
| DRRETASGVSVR | 0.682 ± 0.025 |
| SGRVGRGAADWR | 0.681 ± 0.029 |
| PPPPDPWTSPRP | 0.734 ± 0.027 |

| Sequence | protein stability index |
| --- | --- |
| DDPGPSTHPRSA | 0.63 ± 0.0069 |
| WSSTTISVQRGL | 0.7 ± 0.089 |
| LLPSPSYPLSPS | 0.751 ± 0.037 |
| ACGLVSTSWYGA | 0.713 ± 0.086 |
| RRMDGHLRELPA | 0.685 ± 0.058 |
| KRESETPKKHRK | 0.711 ± 0.068 |
| DTVTGNWGVGLG | 0.657 ± 0.02 |
| HWRRGGRSGGDR | 0.71 ± 0.033 |
| FDNPFQATTATK | 0.823 ± 0.16 |
| HSSLPQPRELRT | 0.674 ± 0.021 |
| SRSCCPGVRVRF | 0.709 ± 0.03 |
| LALYPYIPDSPF | 0.636 ± 0.048 |
| GLRLLVLPDSWS | 0.682 ± 0.056 |
| EEGAGLLWSAVG | 0.641 ± 0.014 |
| SRMRRGCTGCEC | 0.671 ± 0.061 |
| TNQRKKTVAGEK | 0.672 ± 0.025 |
| LWCGGWVCVLGW | 0.532 ± 0.013 |
| ADLEQTWRYRLD | 0.674 ± 0.031 |
| TIGPSYLLPDSF | 0.784 ± 0.018 |
| FISPSPLPPYSP | 0.665 ± 0.059 |
| VSFAGSPVPSSS | 0.716 ± 0.0095 |
| NFTSYDIYLSCS | 0.671 ± 0.016 |
| CLRRTSLEDRRR | 0.704 ± 0.037 |
| SSSAPLPPSLPL | 0.791 ± 0.16 |
| DWYSGVTYGPCS | 0.78 ± 0.062 |
| RGPTGEDLCSAM | 0.696 ± 0.032 |

| Sequence | protein stability index |
| --- | --- |
| LVGLNNSFVSKA | 0.6448 ± 0.0039 |
| FAISPCVSLAFF | 0.642 ± 0.05 |
| SEALRGVQFLSC | 0.684 ± 0.054 |
| AELPPETKRLTR | 0.626 ± 0.04 |
| GIKKNQVSIRYI | 0.606 ± 0.03 |
| ASPLFPLPPPPP | 0.71 ± 0.004 |
| RGRVLDTRDWGP | 0.666 ± 0.059 |
| GGSGLRCCREMG | 0.681 ± 0.022 |
| DDGGSVTERDKS | 0.649 ± 0.007 |
| TVERRYTGDWGG | 0.726 ± 0.032 |
| PVSVSSFFLSRF | 0.767 ± 0.21 |
| GLGVSLLVGGEA | 0.6572 ± 0.0028 |
| LVVEAIRSRAFK | 0.6919 ± 0.0028 |
| GHGGHIVRTSSY | 0.7 ± 0.023 |
| RPLVYIKHLALL | 0.44 ± 0.17 |
| NYCKGFLLRANI | 0.645 ± 0.071 |
| VGCRVVPGAGEV | 0.666 ± 0.016 |
| KNNITTTNKRMK | 0.679 ± 0.0071 |
| RLTSPPYSFFLH | 0.644 ± 0.019 |
| YGCSLFCPDCSI | 0.794 ± 0.15 |

Reference: the supplement of paper PMC10724198
